Laboratory results as given in paper PMC10893636, “Synergistic enhancement of the mouse Pramex1 and Pramel1 in repressing retinoic acid (RA) signaling during gametogenesis” (Cell & Bioscience, 2024).

B1: PRAMEX1 (Prame like, X-linked 1) (natural protein, mouse (endogenous in testis), UniProt F7ADI6 1-462, looked up)
chain: MDERDPSSLLDLAIQSLLSNELVAIHSLGEIPRELFVPLFSAAFTGGYRKILTSMVKIWPFTCLHIGTLSVQEPQRELLKAMVESLQFLPAQDCSSGGPKLRILDVRQGVDCKTTCPDFGARSPTCFHGCTHSVHSILKLESQYSIVDLKPESQSAIQPMELLVDLSLDGTLREREFFALLLNKVQQSSGSLHLCCRDLQIDRFSYAKNALKFLDLTCIQNLTVDQASLSEVTTLLARMIYLDSLSLSKITYRSLHGKVFRVFLNYLGRMNCLKELNLSSFSLTDHLDSLLRALPPNLDFLYLPFCEISYRDLKFLSQSAQATHLKLLNLSNNPMYWDDCGPFQTLLQKLSDTLQHLAINHCHLTDAILSAILPALSKCSHLRVISFVSNPISMPMLLKILHYLTPLMELKYVIYPIPIHCYEQWQFHGRLDRQKLTDVQAQLKAMLQAAKRSDMNWITYSQ
notes: PRAMEX1 (Prame like, X-linked 1), mouse, endogenous in testis; band of about 56 kDa; Endogenous protein of C57BL/6 mouse testis; no recombinant construct; source: endogenous, mouse P7 testis protein extract
B2: Retinoic acid receptor alpha (RARα) (natural protein, mouse (endogenous in testis), UniProt P11416 1-462, looked up)
chain: MASNSSSCPTPGGGHLNGYPVPPYAFFFPPMLGGLSPPGALTSLQHQLPVSGYSTPSPATIETQSSSSEEIVPSPPSPPPLPRIYKPCFVCQDKSSGYHYGVSACEGCKGFFRRSIQKNMVYTCHRDKNCIINKVTRNRCQYCRLQKCFDVGMSKESVRNDRNKKKKEAPKPECSESYTLTPEVGELIEKVRKAHQETFPALCQLGKYTTNNSSEQRVSLDIDLWDKFSELSTKCIIKTVEFAKQLPGFTTLTIADQITLLKAACLDILILRICTRYTPEQDTMTFSDGLTLNRTQMHNAGFGPLTDLVFAFANQLLPLEMDDAETGLLSAICLICGDRQDLEQPDKVDMLQEPLLEALKVYVRKRRPSRPHMFPKMLMKITDLRSISAKGAERVITLKMEIPGSMPPLIQEMLENSEGLDTLSGQSGGGTRDGGGLAPPPGSCSPSLSPSSHRSSPATQSP
notes: Retinoic acid receptor alpha, mouse, endogenous in testis; band of 52 kDa; Endogenous protein of C57BL/6 mouse testis; source: endogenous, mouse P7 testis protein extract

Columns and labels:
[1] = target: B2; assay: co-IP; anti-PRAMEX1 or anti-RARα antibody immobilised on protein A/G magnetic beads (Pierce Crosslink Magnetic IP/co-IP Kit); P7 testis proteins of WT, Pramex1 sKO and Pramel1 sKO mice, overnight at 4 °C; Western blot, band intensity relative to input (set as 1), n = 3; conditions: partners not purified
[2] = target: B1; assay: as above; conditions: partners not purified

Binder	band intensity in the RARα co-IP relative to input, Pramel1 sKO testis [1] [fold]	band intensity in the RARα co-IP relative to input, WT testis [1] [fold]	band intensity in the PRAMEX1 precipitation relative to input, Pramel1 sKO testis [2] [fold]	band intensity in the PRAMEX1 precipitation relative to input, WT testis [2] [fold]
B1	3.32	1.3		
B2			2.48	1.5
